Measurements as given in US20240132857.

B1: Ube2N^D119A (protein)
chain: GMAGLPRRIIKETQRLLAEPVPGIKAEPDESNARYFHVVIAGPQDSPFEGGTFKLELFLPEEYPMAAPKVRFMTKIYHPNVDKLGRICLDILKDKWSPALQIRTVLLSIQALLSAPNPDAPLANDVAEQWKTNEAQAIETARAWTRLYAMNNI
B2: Ube2N^D124A (protein)
chain: GMAGLPRRIIKETQRLLAEPVPGIKAEPDESNARYFHVVIAGPQDSPFEGGTFKLELFLPEEYPMAAPKVRFMTKIYHPNVDKLGRICLDILKDKWSPALQIRTVLLSIQALLSAPNPDDPLANAVAEQWKTNEAQAIETARAWTRLYAMNNI
B3: Ube2N^D119N (protein)
chain: GMAGLPRRIIKETQRLLAEPVPGIKAEPDESNARYFHVVIAGPQDSPFEGGTFKLELFLPEEYPMAAPKVRFMTKIYHPNVDKLGRICLDILKDKWSPALQIRTVLLSIQALLSAPNPDNPLANDVAEQWKTNEAQAIETARAWTRLYAMNNI
B4: Ube2N^N123A (protein)
chain: GMAGLPRRIIKETQRLLAEPVPGIKAEPDESNARYFHVVIAGPQDSPFEGGTFKLELFLPEEYPMAAPKVRFMTKIYHPNVDKLGRICLDILKDKWSPALQIRTVLLSIQALLSAPNPDDPLAADVAEQWKTNEAQAIETARAWTRLYAMNNI

What follows are proteins tested against Ub^1-74, P0CG48.
Sequence of Ub^1-74, P0CG48 (P0CG48 whole entry, looked up, tested part not stated): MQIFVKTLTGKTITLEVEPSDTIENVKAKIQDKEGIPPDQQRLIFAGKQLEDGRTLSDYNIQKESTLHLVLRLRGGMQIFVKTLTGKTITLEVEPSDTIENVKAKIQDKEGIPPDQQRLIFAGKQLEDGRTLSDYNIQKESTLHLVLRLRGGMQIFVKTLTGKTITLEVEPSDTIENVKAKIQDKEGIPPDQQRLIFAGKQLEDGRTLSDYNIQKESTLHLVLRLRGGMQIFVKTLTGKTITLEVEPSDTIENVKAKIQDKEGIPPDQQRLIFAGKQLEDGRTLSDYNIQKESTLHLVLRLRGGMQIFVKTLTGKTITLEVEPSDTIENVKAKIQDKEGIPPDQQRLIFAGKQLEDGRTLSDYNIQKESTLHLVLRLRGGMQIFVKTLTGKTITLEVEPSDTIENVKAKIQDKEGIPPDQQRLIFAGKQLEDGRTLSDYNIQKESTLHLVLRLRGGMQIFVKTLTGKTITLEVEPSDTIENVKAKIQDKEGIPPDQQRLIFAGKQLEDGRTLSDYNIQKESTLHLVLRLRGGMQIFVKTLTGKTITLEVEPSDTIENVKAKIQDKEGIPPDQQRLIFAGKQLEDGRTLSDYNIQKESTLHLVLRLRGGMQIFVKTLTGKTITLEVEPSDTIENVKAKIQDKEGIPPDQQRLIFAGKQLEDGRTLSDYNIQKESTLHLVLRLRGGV
B1 was tested, and the “KM of di-ubiquitin formation, fold increase against wild-type Ube2N” value was “modestly increased the KM by ˜4 and ˜7-fold, respectively” and the “kcat of di-ubiquitin formation, fold reduction against wild-type Ube2N” value (from here on “kcat … fold reduction against wild-type Ube2N”) was “Mutation to alanine reduced kcat 100-fold”. With B2 the “kcat … fold reduction against wild-type Ube2N” value was “The ˜3-fold reduction in kcat”. With B3 the “KM of di-ubiquitin formation, fold increase against wild-type Ube2N” value was “modestly increased the KM by ˜4 and ˜7-fold, respectively” and the “kcat … fold reduction against wild-type Ube2N” value was “mutation to asparagine 30-fold”. For B4, the “kcat … fold reduction against wild-type Ube2N” value was “The ˜3-fold reduction in kcat”.
